Results taken from patent publication US20120058906A1.

Tests used:
[1] = molecular target: rHuman P-Cadherin/Fc Chimera, CF (R&D Systems Cat#861-PC) (human) (UniProt P22223); assay: ECL (MSD multi-spot), Fab 85.0 nM; blank 292
[2] = molecular target: rHuman EGF R/Fc Chimera, CF (R&D Systems Cat#344-ER) (human) (UniProt P00533); assay: ECL (MSD multi-spot), Fab 85.0 nM; blank 292
[3] = molecular target: rHuman CD44/Fc Chimera, CF (R&D Systems Cat#3660-CD) (human) (UniProt P16070); assay: ECL (MSD multi-spot), Fab 85.0 nM; blank 292
[4] = molecular target: rHuman Notch-1/Fc Chimera, CF (R&D Systems Cat#3647-TK) (human) (UniProt P46531); assay: ECL (MSD multi-spot), Fab 85.0 nM; blank 292
[5] = molecular target: rHuman IGF-1 sR (IGF-1 sR), CF (R&D Systems Cat#391-GR) (human) (UniProt P08069); assay: ECL (MSD multi-spot), Fab 85.0 nM; blank 292
[6] = molecular target: rHuman Erythropoietin R/Fc Chimera, CF (R&D Systems Cat#963-ER) (human) (UniProt P19235); assay: ECL (MSD multi-spot), Fab 85.0 nM; blank 292
[7] = molecular target: rHuman HGF R/c-MET/Fc Chimera, CF (R&D Systems Cat#358-MT/CF) (human) (UniProt P08581); assay: ECL (MSD multi-spot), Fab 85.0 nM; blank 292
[8] = molecular target: rHuman ErbB2/Fc Chimera, CF (R&D Systems Cat#1129-ER) (human) (UniProt P04626); assay: ECL (MSD multi-spot), Fab 85.0 nM; blank 292
[9] = molecular target: rHuman P-Cadherin/Fc Chimera, CF (R&D Systems Cat#861-PC) (human) (UniProt P22223); assay: ECL (MSD multi-spot), Fab 170 nM; blank 262
[10] = molecular target: rHuman EGF R/Fc Chimera, CF (R&D Systems Cat#344-ER) (human) (UniProt P00533); assay: ECL (MSD multi-spot), Fab 170 nM; blank 262
[11] = molecular target: rHuman CD44/Fc Chimera, CF (R&D Systems Cat#3660-CD) (human) (UniProt P16070); assay: ECL (MSD multi-spot), Fab 170 nM; blank 262
[12] = molecular target: rHuman Notch-1/Fc Chimera, CF (R&D Systems Cat#3647-TK) (human) (UniProt P46531); assay: ECL (MSD multi-spot), Fab 170 nM; blank 262
[13] = molecular target: rHuman IGF-1 sR (IGF-1 sR), CF (R&D Systems Cat#391-GR) (human) (UniProt P08069); assay: ECL (MSD multi-spot), Fab 170 nM; blank 262
[14] = molecular target: rHuman Erythropoietin R/Fc Chimera, CF (R&D Systems Cat#963-ER) (human) (UniProt P19235); assay: ECL (MSD multi-spot), Fab 170 nM; blank 262
[15] = molecular target: rHuman HGF R/c-MET/Fc Chimera, CF (R&D Systems Cat#358-MT/CF) (human) (UniProt P08581); assay: ECL (MSD multi-spot), Fab 170 nM; blank 262
[16] = molecular target: rHuman ErbB2/Fc Chimera, CF (R&D Systems Cat#1129-ER) (human) (UniProt P04626); assay: ECL (MSD multi-spot), Fab 170 nM; blank 262
[17] = molecular target: rHuman P-Cadherin/Fc Chimera, CF (R&D Systems Cat#861-PC) (human) (UniProt P22223); assay: ECL (MSD multi-spot), Fab 340 nM; blank 554
[18] = molecular target: rHuman CD44/Fc Chimera, CF (R&D Systems Cat#3660-CD) (human) (UniProt P16070); assay: ECL (MSD multi-spot), Fab 340 nM; blank 554
[19] = molecular target: rHuman Notch-1/Fc Chimera, CF (R&D Systems Cat#3647-TK) (human) (UniProt P46531); assay: ECL (MSD multi-spot), Fab 340 nM; blank 554
[20] = molecular target: rHuman Erythropoietin R/Fc Chimera, CF (R&D Systems Cat#963-ER) (human) (UniProt P19235); assay: ECL (MSD multi-spot), Fab 340 nM; blank 554
[21] = molecular target: rHuman ErbB2/Fc Chimera, CF (R&D Systems Cat#1129-ER) (human) (UniProt P04626); assay: ECL (MSD multi-spot), Fab 340 nM; blank 554
[22] = molecular target: rHuman P-Cadherin/Fc Chimera, CF (R&D Systems Cat#861-PC) (human) (UniProt P22223); assay: ECL (MSD multi-spot), Fab […]; blank 162
[23] = molecular target: rHuman EGF R/Fc Chimera, CF (R&D Systems Cat#344-ER) (human) (UniProt P00533); assay: ECL (MSD multi-spot), Fab […]; blank 162
[24] = molecular target: rHuman CD44/Fc Chimera, CF (R&D Systems Cat#3660-CD) (human) (UniProt P16070); assay: ECL (MSD multi-spot), Fab […]; blank 162
[25] = molecular target: rHuman Notch-1/Fc Chimera, CF (R&D Systems Cat#3647-TK) (human) (UniProt P46531); assay: ECL (MSD multi-spot), Fab […]; blank 162
[26] = molecular target: rHuman IGF-1 sR (IGF-1 sR), CF (R&D Systems Cat#391-GR) (human) (UniProt P08069); assay: ECL (MSD multi-spot), Fab […]; blank 162
[27] = molecular target: rHuman Erythropoietin R/Fc Chimera, CF (R&D Systems Cat#963-ER) (human) (UniProt P19235); assay: ECL (MSD multi-spot), Fab […]; blank 162
[28] = molecular target: rHuman HGF R/c-MET/Fc Chimera, CF (R&D Systems Cat#358-MT/CF) (human) (UniProt P08581); assay: ECL (MSD multi-spot), Fab […]; blank 162
[29] = molecular target: rHuman ErbB2/Fc Chimera, CF (R&D Systems Cat#1129-ER) (human) (UniProt P04626); assay: ECL (MSD multi-spot), Fab […]; blank 162

Sequence of rHuman Erythropoietin R/Fc Chimera, CF (R&D Systems Cat#963-ER) (human) (P19235 25-250, change not shown): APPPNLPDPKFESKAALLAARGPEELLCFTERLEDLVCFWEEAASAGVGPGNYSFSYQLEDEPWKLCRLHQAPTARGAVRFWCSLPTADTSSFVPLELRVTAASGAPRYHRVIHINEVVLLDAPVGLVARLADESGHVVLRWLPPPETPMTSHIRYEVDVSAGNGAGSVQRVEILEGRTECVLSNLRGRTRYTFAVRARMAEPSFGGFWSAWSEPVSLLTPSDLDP

Fab VH4-34_IGHD7-27*01_IGHJ4*01 & V4-6_IGLJ4*01
ECL signal [1]: 709 ECL signal | ECL signal [2]: 1000 ECL signal | ECL signal [3]: 693 ECL signal | ECL signal [4]: 780 ECL signal | ECL signal [5]: 891 ECL signal | ECL signal [6]: 817 ECL signal | ECL signal [7]: 998 ECL signal | ECL signal [8]: 844 ECL signal | ECL signal [9]: 744 ECL signal | ECL signal [10]: 826 ECL signal | ECL signal [11]: 660 ECL signal | ECL signal [12]: 816 ECL signal | ECL signal [13]: 832 ECL signal | ECL signal [14]: 790 ECL signal | ECL signal [15]: 757 ECL signal | ECL signal [16]: 964 ECL signal | ECL signal [17]: 1160 ECL signal | ECL signal [18]: 959 ECL signal | ECL signal [19]: 1210 ECL signal | ECL signal [20]: 1260 ECL signal | ECL signal [21]: 1230 ECL signal | ECL signal [22]: 421 ECL signal | ECL signal [23]: 528 ECL signal | ECL signal [24]: 522 ECL signal | ECL signal [25]: 649 ECL signal | ECL signal [26]: 646 ECL signal | ECL signal [27]: 494 ECL signal | ECL signal [28]: 607 ECL signal | ECL signal [29]: 866 ECL signal
